Source: the DeepSol protein solubility set

assay: soluble on expression in E. coli; label from the status in PepcDB or PDB records

Soluble on expression in E. coli, not soluble:
MGSDKIHHHHHHMIILTRKDLDELLKAEIAVSSVKEAFKLHYQKKVDQPQRLVMSVKGNWWGLMPSSTDYSFVTKIVNVIPENKERGLPLVQGVVILMSPDTGEILAIIDGTTLTAIRTAAASILSTELAINGRNIGILGIIGAGTEAYYHAKLALEYFKVQKLYISARKSHFELAKRVGGEATDLETLLKNSDTIFATTSSNFPVVLGKYLKDVFHLSSIGAHTPDSRELDDDTIIKVKSYIVDSLEAVSKESGDYIIPKQRGLLENKMIKELGEIIEKGIKIERPSLFKTVGIAVEDNITAHIAYQEALRRGIGFNVSI
MGSDKIHHHHHHMIKIGAHMPISKGFDRVPQDTVNIGGNSFQIFPHNARSWSAKLPSDEAATKFKREMKKHGIDWENAFCHSGYLINLASPKDDIWQKSVELLKKEVEICRKLGIRYLNIHPGSHLGTGEEEGIDRIVRGLNEVLNNTEGVVILLENVSQKGGNIGYKLEQLKKIRDLVDQRDRVAITYDTCHGFDSGYDITKKEGVEALLNEIESLFGLERLKMIHLNDSKYPLGAAKDRHERIGSGFIGEEGFAVFFSFKEIQEVPWILETPGGNEEHAEDIKKVFEIIEKFGIEVD
MGSDKIHHHHHHMIKLSYLTSYITCPRLCYFRVHVGEKRFTELTAVREIYLSLKQGFDLDWAKKRAKALHGAFDEEAFRSAANKFIFPQIDCKSVEVDATIKSKSLGLLVSVDEIVECDGELLPLFLGLNPPENGVWFKDMVKAGAAALAGNYSKALIYYGYTGDLRPVEVTFSLKKKVIKLIERVKLIQRGFLPERKESRYCNYCSFSEDCKSRAETFASKFL
MGSDKIHHHHHHMILYFSGTGNSRYVARKIAQELNDELISLNQLIKDEKTDELISADKPFIFVCPTYAWRLPIVVTDFIKETKFLGSNRVYFVMTCGGDTAKSINYIQKLCKYKEWQLKGMAEIKMPENYIALFSTTDKETSKQMIKEADKQIYRIISDIRNENEFETITPSGLGGTIKSGIINTVFYKTIISAKGFHYTDKCIGCGKCVELCPLNNINLKNKKPVWKNNCTHCMACICGCPTEAIEYKNKTQNRERYYLE
MGSDKIHHHHHHMIMRILVVGDFLKTSGMTRYIFNVIGRIHASDFQVDALSISGKDECKGQVKKMGWGFYCVQAANNNLLRHLVQSFIFFKKHAKDYDVIHFNESALWNFLPIIFAHLFGAKRIILNSHNTYFATEGSKKLYVVLEIMHRIGKWLVAHVVAQNIAVSEEAARWMFTRKTINRHEYKIIVNGIELEKFAYNKEQRFKIRKSLKINEDTFLFGNVGIFNARKNQLRLLEIFNELVKRNLDVKLVLVGDGPIKEAIVAKISELRLADKVVMTGLINNTNEYYQAMDGVIMPSLNEGLSTVLLEAQTSGLQFILSEGLPLGNHIDLLVHEVPLSESNRVWADVVEHNMNREKREVFGSIMQKKGFDVELSAKELYQTYLEER
MGSDKIHHHHHHMINDHQYVADLHIHLGQTASNRPVKITAARTLTLENIIDYARTVKGIDIIGVIDCHVPEVLEGLKHSIESGEAYELKGGGIRFPDVTLILGTEIEVYDEESLGPVHVLAYTPTWNAMMELSSWMGSRMKNPTLSSQRLYETSIVLQQKVKELGGLFIPAHAFTPFKGVYGKGVKQSMGEIFDLALIDGIELGLSADTSMADQVEELHRFPFLSNSDAHSLEKLAREYQILHLYEPSFQAFQSALRDKDKCSIVANYGLNPYLGKYYETTCAQCRTPMKGSACETCGSSKVVKGVSERLTELATASENNGKQRPPYVHQIPLEFIPKVGKRTLARLREAFGTDMDILHQATFEQLCDVIPNHIAEAIVIAREGKATIKRGGGGHYGKMIGTE
MGSDKIHHHHHHMINEQRLLNTFLELVQIDSETGNESTIQPILKEKFIALGLDVKEDEAAKHPKLGANNLVCTMNSTIEEGEVPKLYLTSHMDTVVPAINVKPIVKDDGYIYSDGTTILGADDKAGLAAMLEVLQVIKEQQIPHGQIQFVITVGEESGLIGAKELNSELLDADFGYAIDASADVGTTVVGAPTQMLISAKIIGKTAHASTPKEGVSAINIAAKAISRMKLGQVDEITTANIGKFHGGSATNIVADEVILEAEARSHDPERIKTQVKHMTDVFETTASELGGKAEVTVEQSYPGFKINDNEAVVKIAQESARNLGLSANTIISGGGSDGSIINTFGIPSVILGVGYEKIHTTNERMPIKSLNLLASQVLEIIKIVARQSK
MGSDKIHHHHHHMINKYKVSENRLSIMEIERFAVHDGPGIRTVVFLQGCPLHCSWCSNPESQKRKPHLLHIKNKCIGCGRCEAICPRGNISIQDHFPVFNRQACVACKACERICPQNAIKFVGESITSSEIMEILLRDRDYYLNSGGGVTFSGGEAFTQFEGLMDLLIQCKNEKLHTSVETCGQVNLDKIKQALPLIDLFLFDIKHTDKDLLQKETGANLDTILTNLRYISSKSANKVTIRVPVIPGFNFNENTLREIFMLAKENRIKCVHLLPYHTLGKDKYEQLGLTYPYSCEQMLAKEELFPFKEMGEKMGLEIRIGG
MGSDKIHHHHHHMINRYLGDPPFESPERRNRLPERHKVKAGFSPTIDCAVLIAAAEKGFAADEGIELELFREQSARAVLAALGGDDIHIGHLPAPVPVGSAVGLDDLPADIVGVFTLSLGGSATAVSHGFYDELYREGMKLPDPAAFGRAMARVCAARRAAGKNPPVFAVEDIVSTPFYTLRYLLGSCGVLLGRDMEIIEALPKAMPALLESGKVDALCTAEPAGSAVVLGGAGRIVTTGALIWHNAPEKILAVKKGWAEENATLLEGLLRALYRAGEWCANDANIEELAGILAAPQYIDENGEFLLPALTGYISTSQRDMQRFQEFFVTSAKAANFPWQSQALWFFSQMLRWGEVPAERRLEPTMAEAARNAYRPDIFRKAMKPLFVPVPGANLKLEGTLKEPVHVGASRTGLVLGPDCFFDGRVFDPETLEMDDEI
MGSDKIHHHHHHMIQKGLEGVKICESSICYLDGINGRLYYRGIPVEELAEKSTFEETAYFLWYGKLPTKSELEEFKRKMADYRELPAEALGILYHLPKNLHYIDVLKIFLSIHGSMDGNDEDLREKAIRVASVFPTILAYYYRYSKGKELIRPRKDLSHVENFYYMMFGERNEKIRLLESAFILLMEQDINASTFAALVIASTLSDLYSCIVGALGALKGPLHGGASEKVPPMLEEIGSEDRVEEFVQKCLKEKRKIMGFGHRVYKTYDPRAVFLKRVLQEHFPDSKLFRIASKLEEYIVSNKIKNIYPNVDLYSSVLFEELGFPRNMFTALFATARVVGWTAHVIEYVSDNKLIRPTSEYVGPMDVEYIPIERRDENG
MGSDKIHHHHHHMIQRRETFLNNVAEKLGRGRRTAGVKRPDYTVKPQFEVMKEHSSDQLVNVLSEQCTKIHTDVKQTKVDRLEQAIDNVLEEYSARNVITWNDPRFDQFGLTSFLQREQVEVWDHTEGERLVEKAEQADIGITFADYTLAESGTVVLLSGNGKGRSVSLLPTYYIAIIPKSTLVPRMSQVTRELHLKAASGERLPSCINFISGPSNSADIEMNLVVGVHGPIRACYIVVEDR
MGSDKIHHHHHHMIRNLTPSDFAQVISLGEQVHGANYLDLDTLKHYYQLGIKDGINAHFVAEQAGEIIGFRLTFTANQWTLDEWCSPALWGVEIDKVCYFKSNTLAEKARGQGIGGDLLAQSIAAVKAQGAKAGVSHLWKQSPHNAAVRYFTKAGGRLIKEHPGRWNQANDGSDYLCVLCGNDCHCTACEMLINF
MGSDKIHHHHHHMIRSLWIAKTGLNAQQTNMDVISNNLANVSTNGFKRQRAVFEDLMYQTIRQPGAQSSEQTMLPSGLQLGTGVRPVSTERIHTQGTFSETGNSKDVAIKGQGFFQVQLPDGTTAYTRDGAFQLDGNGQLVTSSGYQVQPAITVPANATELNIGRDGIVSVKVQGQAATNQIGQLTLTTFINDSGLESMGENLYLETASSGAPNETNPGLNGAGLLYQKYVETSNVNVAEELVSMIQTQRAYEINSKAISSSDQMLQKLTQL
MGSDKIHHHHHHMISMKPRYKPDWESLREHTVPKWFDKAKFGIFIHWGIYSVPGWATPTGELGKVPMDAWFFQNPYAEWYENSLRIKESPTWEYHVKTYGENFEYEKFADLFTAEKWDPQEWADLFKKAGAKYVIPTTKHHDGFCLWGTKYTDFNSVKRGPKRDLVGDLAKAVREAGLRFGVYYSGGLDWRFTTEPIRYPEDLSYIRPNTYEYADYAYKQVMELVDLYLPDVLWNDMGWPEKGKEDLKYLFAYYYNKHPEGSVNDRWGVPHWDFKTAEYHVNYPGDLPGYKWEFTRGIGLSFGYNRNEGPEHMLSVEQLVYTLVDVVSKGGNLLLNVGPKGDGTIPDLQKERLLGLGEWLRKYGDAIYGTSVWERCCAKTEDGTEIRFTRKCNRIFVIFLGIPTGEKIVIEDLNLSAGTVRHFLTGERLSFKNVGKNLEITVPKKLLETDSITLVLEAVEE
MGSDKIHHHHHHMISTANITMQFGSKPLFENVSVKFNNGNRYGLIGANGCGKSTFMKILGGDLEPSAGQVMLEPNTRLGKLRQDQFAYEEFTVIDTVIMGHGQLWKVKAERDRIYSLPEMTEEDGMAVAELETEFAEMDGYTAESRAGELLLGLGIPLEQHFGPMSEVAPGWKLRVLLAQALFSDPDVLLLDEPTNHLDINTIRWLETILTARNSTMIIISHDRHFLNSVCTHMADLDYGELRLFPGNYDEYMTAATQSREQLLSDNAKKKAQIAELQTFVSRFSANASKAKQATSRAKQIDKIQLAEVKPSSRVSPFIRFEQAKKLHRQAVVVEKMAKAFDDKVLFKNFDITVEAGERVAIIGPNGIGKTTLLRTLVGEMTPDAGSVKWTDSAEVGYYAQDHAHDFEDDMTLFDWMGQWTSGEQVIRGTLGRMLFSNDEILKSVKVISGGEQGRMLFGKLILQKPNVLVMDEPTNHLDMESIEALNLALENYPGTLLFVSHDREFVSSLATRIIELSADGVVDFSGTYDDYLRSQGVLV
MGSDKIHHHHHHMITDPQIKACIHQHHLFSALGEEELCRLLGQAAKITLAAHENLFYQGDLAKRFYLVIQGHLQLYRTSLQGQDKVIEVVREGRTFAEALMFSRQASYPVSAQAVSHCTLVSFDSEGYLAMLRGNPDACIAIMAEMSVRLRKDINEVELLSVQNAQSRLLLFLLRNMQKIGDNQGRVELDIPKRVLASRLSIQPETFSRLMKKMVTEGIIGESRGAIDIKDLAKLYTSANMPLANQAIQTSEPLIRSGKAPCQQIAIEMV
MGSDKIHHHHHHMIVLLREINRYCKEKATGKRIYAVPKLWIPGFFKKFDEKSGRCFVDPYELGAEITDWILNQSREWDYSQPLSFLKGEKTPDWIKRSVVYGSLPRTTAAYNHKGSGYYEENDVLGFREAGTFFKMMLLLPFVKSLGADAIYLLPVSRMSDLFKKGDAPSPYSVKNPMELDERYHDPLLEPFKVDEEFKAFVEACHILGIRVILDFIPRTAARDSDLIREHPDWFYWIKVEELADYTPPRAEELPFKVPDEDELEIIYNKENVKRHLKKFTLPPNLIDPQKWEKIKREEGNILELIVKEFGIITPPGFSDLINDPQPTWDDVTFLRLYLDHPEASKRFLDPNQPPYVLYDVIKASKFPGKEPNRELWEYLAGVIPHYQKKYGIDGARLDMGHALPKELLDLIIKNVKEYDPAFVMIAEELDMEKDKASKEAGYDVILGSSWYFAGRVEEIGKLPDIAEELVLPFLASVETPDTPRIATRKYASKMKKLAPFVTYFLPNSIPYVNTGQEIGEKQPMNLGLDTDPNLRKVLSPTDEFFGKLAFFDHYVLHWDSPDRGVLNFIKKLIKVRQQFLDFVLNGKFENLTTKDLVMYSYEKNGQKIVIAANVGKEPKEITGGRVWNGKWSDEEKVVLKPLEFALVVQE
